Assays:
p300 [1] = molecular target: p300 (UniProt Q09472); experiment: ELISA; ratio of Kd against native HIF1α
p300 [2] = molecular target: p300 (UniProt Q09472); experiment: ELISA, total binding fit, average of three independent trials (FIG. 21)

p300, sequence (Q09472 323-423 limits assumed): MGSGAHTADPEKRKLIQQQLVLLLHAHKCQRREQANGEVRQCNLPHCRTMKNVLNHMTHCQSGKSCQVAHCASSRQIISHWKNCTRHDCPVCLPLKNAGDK

Binder	fold improvement over native HIF1α (p300 [1]) [fold]	Kd (p300 [2]) [nM]
HIF1α-MAP-1 (H-MAP-1) (designed binder) MRGSHHHHHHGSACELAATATATATATATAACGDLAPQMLRELQETNAALQDVRELLRQQVKEITFLKNTLLEIWKAAKEAAKEAAAKIEEQAKTFLDKFNGEELLRALDQVN	47	0.00808
HIF1α-MAP-2 (H-MAP-2) (designed binder) MRGSPKKKRKVGGGGSHHHHHHHHGSACELAATATATATATATAACGDLAPQMLRELQETNAALQDVRELLRQQVKEITFLKNTLLEIWKAAKEAAKEAAAKIEEQAKTFLDKFNGEELLRALDQVN	–	0.0382

Reference: patent US20230280343A1
